Reference: patent US20230192896A1 (BIOVERATIV THERAPEUTICS, published 2023)
Residue numbers refer to the chain shown, from its start. Each block holds one binder with its values, some of them ahead of it.

Molecular target: T1, non-activatable Factor X (FXn) (Homo sapiens (Human), UniProt P00742 41-488, single biotin on the C-terminal BioTag)
T1 construct: also called BIIB-FX-015
Assay: BLI; class meaning: paragraph 285

B1: BIIB-12-895 (antibody, V domains shown)
VH: QVQLVQSGAEVKKPGASVKVSCKASGYTFTSYYMHWVRQAPGQGLEWMGIINPSGGSTSYAQKFQGRVTMTRDTSTSTVYMELSSLRSEDTAVYYCARGGGYKSRGIDYWGQGTLVTVSS
VL: DIQMTQSPSSVSASVGDRVTITCRASQGISSWLAWYQQKPGKAPKLLIYAASSLQSGVPSRFSGSGSGTDFTLTISSLQPEDFATYYCQQASSFPFTFGGGTKVEI
notes: IgG
binding result: binds

B2: BIIB-12-903 (antibody, V domains shown)
VH: B1 VH with G99D, G100L, K103T, S104A, R105G, G106A, I107F, D108G
VL: EIVLTQSPATLSLSPGERATLSCRASQSVSSYLAWYQQKPGQAPRLLIYDASNRATGIPARFSGSGSGTDFTLTISSLEPEDFAVYYCQQRANWPPTFGGGTKVEIK
notes: IgG
binding result: binds

B3: BIIB-12-906 (antibody, V domains shown)
VH: QVQLVESGGGVVQPGRSLRLSCAASGFTFSSYGMHWVRQAPGKGLEWVAVISYDGSNKYYADSVKGRFTISRDNSKNTLYLQMNSLRAEDTAVYYCAKSSRHFDYWGRGTLVTVSS
VL: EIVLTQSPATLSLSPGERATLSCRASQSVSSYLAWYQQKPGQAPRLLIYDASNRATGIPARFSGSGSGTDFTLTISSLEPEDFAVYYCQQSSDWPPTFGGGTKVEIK
notes: IgG
binding result: binds

B4: BIIB-12-1311 (antibody, V domains shown)
VH: B3 VH with S99G, S100R, R101H, H102Y, F103W, D104A, Y105V, R108Q
VL: B2 VL with R91A, A92S, W94L
notes: IgG
binding result: binds

B5: BIIB-12-904 (antibody, V domains shown)
VH: QVQLVESGGGVVQPGRSLRLSCAASGFTFSSYGMHWVRQAPGKGLEWVAVISYDGSNKYYADSVKGRFTISRDNSKNTLYLQMNSLRAEDTAVYYCARGSGRSGYHYWGQGTLVTVSS
VL: B2 VL with L4M, L13V, Y32N, D50G, N53T, D70E, E79Q, P80S, R91A, A92F
notes: IgG
binding result: binds

B6: BIIB-12-912 (antibody, V domains shown)
VH: B5 VH with R98K, G99S, S100G, S103Y, H106D, Y107I, L113M
VL: EIVMTQSPATLSVSPGERATLSCRASQSVSSNLAWYQQKPGQAPRLLIYGASTRATGIPARFSGSGSGTEFTLTISSLQSEDFAVYYCQQFHNFPPTFGGGTKVEIK
notes: IgG
binding result: binds

B7: BIIB-12-1299 (antibody, V domains shown)
VH: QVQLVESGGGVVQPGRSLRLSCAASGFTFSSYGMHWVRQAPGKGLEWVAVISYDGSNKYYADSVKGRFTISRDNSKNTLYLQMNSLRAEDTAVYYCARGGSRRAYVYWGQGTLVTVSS
VL: B6 VL with F91L, H92N, P96I
notes: IgG
binding result: binds

B8: BIIB-12-911 (antibody, V domains shown)
VH: QVQLVESGGGVVQPGRSLRLSCAASGFTFSSYGMHWVRQAPGKGLEWVAVISYDGSNKYYADSVKGRFTISRDNSKNTLYLQMNSLRAEDTAVYYCARGRGMDVWGQGTTVTVSS
VL: B2 VL with A92S, W94F, P96I
notes: IgG
binding result: binds

B9: BIIB-12-891 (antibody, V domains shown)
VH: QVQLVQSGAEVKKPGASVKVSCKASGYTFTSYYIHWVRQAPGQGLEWMGIINPSGGSTSYAQKFQGRVTMTRDTSTSTVYMELSSLRSEDTAVYYCARASIYRGLGAFDIWGQGTMVTVSS
VL: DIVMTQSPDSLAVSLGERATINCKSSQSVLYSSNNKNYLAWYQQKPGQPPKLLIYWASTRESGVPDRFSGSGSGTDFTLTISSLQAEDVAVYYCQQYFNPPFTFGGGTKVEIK
notes: IgG
binding result: binds

B10: BIIB-12-892 (antibody, V domains shown)
VH: B9 VH with I34M, A99G, S100L, I101G, Y102R, G104T, L105P, G106T
VL: B2 VL with A92L, W94L, P96L
notes: IgG
binding result: binds

B19: BIIB-12-905 (antibody, V domains shown)
VH: B3 VH with S99G, S100G, R101T, H102Y, F103L, Y105T, R108Q
VL: EIVLTQSPGTLSLSPGERATLSCRASQSVRSSYLAWYQQKPGQAPRLLIYGASSRATGIPDRFSGSGSGTDFTLTISRLEPEDFAVYYCQQYGRFPPTFGGGTKVEIK
notes: IgG
binding result: binds

B22: BIIB-12-1314 (antibody, V domains shown)
VH: B3 VH with S99G, S100T, H102W, F103A, D104G, Y105N, R108Q
VL: DIQMTQSPSSVSASVGDRVTITCRASQGISSWLAWYQQKPGKAPKLLIYAASSLQSGVPSRFSGSGSGTDFTLTISSLQPEDFATYYCQQANFFPITFGGGTKVEIK
notes: IgG
binding result: binds

B23: BIIB-12-898 (antibody, V domains shown)
VH: QVQLVQSGAEVKKPGASVKVSCKASGYTFTSYYMHWVRQAPGQGLEWMGIINPSGGSTTYAQKFQGRVTMTRDTSTSTVYMELSSLRSEDTAVYYCARGDRMLRAFDPWGQGTLVTVSS
VL: DIQLTQSPSTLSASVGDRVTITCRASQAISSWLAWYQQKPGKAPKLLIYDASSLESGVPSRFSGSGSGTEFTLTISSLQPDDFATYYCQQVNRFPFTFGGGTKVEIK
notes: IgG
binding result: binds

B25: BIIB-12-896 (antibody, V domains shown)
VH: B1 VH with G100L, Y102Q, K103Q, S104R, I107F, Y109I
VL: B22 VL with F93S, I96F
notes: IgG
binding result: binds

The remaining lines, values ahead:

binding result: binds
B11: BIIB-12-913 (antibody, V domains shown)
VH: QVQLVQSGAEVKKPGASVKVSCKASGYTFTSYGISWVRQAPGQGLEWMGWISAYNGNTNYAQKLQGRVTMTTDTSTSTAYMELRSLRSDDTAVYYCARGGVSRFWGQGTLVTVSS
VL: EIVMTQSPATLSVSPGERATLSCRASQSVSSNLAWYQQKPGQAPRLLIYGASTRATGIPARFSGSGSGTEFTLTISSLQSEDFAVYYCQQYAPYPPLTFGGGTKVEIK
notes: IgG

binding result: binds
B12: BIIB-12-907 (antibody, V domains shown)
VH: QVQLQESGPGLVKPSETLSLTCAVSGYSISSGYYWAWIRQPPGKGLEWIGSIYHSGSTYYNPSLKSRVTISVDTSKNQFSLKLSSVTAADTAVYYCARESGMSGAAYWGQGTLVTVSS
VL: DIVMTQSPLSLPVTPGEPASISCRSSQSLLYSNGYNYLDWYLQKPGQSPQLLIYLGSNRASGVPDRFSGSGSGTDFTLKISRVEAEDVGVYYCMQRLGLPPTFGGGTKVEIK
notes: IgG

binding result: binds
B13: BIIB-12-902 (antibody, V domains shown)
VH: QVQLVQSGAEVKKPGASVKVSCKASGYTFTSYYMHWVRQAPGQGLEWMGIINPGGGSTSYAQKFQGRVTMTRDTSTSTVYMELSSLRSEDTAVYYCARGGPRRAYSWYFDYWGQGTLVTVSS
VL: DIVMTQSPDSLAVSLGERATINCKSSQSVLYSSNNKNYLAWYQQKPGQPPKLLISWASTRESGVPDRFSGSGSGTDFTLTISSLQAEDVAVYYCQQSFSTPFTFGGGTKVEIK
notes: IgG

binding result: binds
B14: BIIB-12-899 (antibody, V domains shown)
VH: QVQLVQSGAEVKKPGASVKVSCKASGYTFTSYYMHWVRQAPGQGLEWMGIINPSGGSTSYAQKFQGRVTMTRDTSTSTVYMELSSLRSEDTAVYYCARGPRTSSPLYFDLWGRGTLVTVSS
VL: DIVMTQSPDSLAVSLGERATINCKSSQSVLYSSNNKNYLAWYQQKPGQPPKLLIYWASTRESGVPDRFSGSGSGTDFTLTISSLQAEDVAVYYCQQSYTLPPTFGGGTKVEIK
notes: IgG

binding result: binds
B15: BIIB-12-909 (antibody, V domains shown)
VH: QVQLVESGGGVVQPGRSLRLSCAASGFTFSSYGMHWVRQAPGKGLEWVAVISYDGSNKYYADSVKGRFTISRDNSKNTLYLQMNSLRAEDTAVYYCAKGKHRRRSFDIWGQGTMVTVSS
VL: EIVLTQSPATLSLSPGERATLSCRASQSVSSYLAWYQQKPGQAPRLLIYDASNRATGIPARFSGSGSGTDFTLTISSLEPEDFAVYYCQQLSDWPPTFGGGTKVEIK
notes: IgG

binding result: binds
B16: BIIB-12-900 (antibody, V domains shown)
VH: QVQLVQSGAEVKKPGASVKVSCKASGYTFTSYYMHWVRQAPGQGLEWMGIINPGGGSTSYAQKFQGRVTMTRDTSTSTVYMELSSLRSEDTAVYYCARSGGMYDRELGMDVWGQGTTVTVSS
VL: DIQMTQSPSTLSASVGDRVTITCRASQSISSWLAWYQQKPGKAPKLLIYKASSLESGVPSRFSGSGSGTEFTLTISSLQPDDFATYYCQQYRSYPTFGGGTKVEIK
notes: IgG

binding result: binds
B17: BIIB-12-901 (antibody, V domains shown)
VH: B16 VH with H35S, G54S, G100R, G101P, M102R, Y103R, D104P, R105S, E106P, L107Y
VL: B2 VL with R91S, W94F, P96F
notes: IgG

binding result: binds
B18: BIIB-12-897 (antibody, V domains shown)
VH: QLQLQESGPGLVKPSETLSLTCTVSGGSISSSSYYWGWIRQPPGKGLEWIGSIYYSGSTYYNPSLKSRVTISVDTSKNQFSLKLSSVTAADTAVYYCAREGRTYYGGWFDPWGQGTLVTVSS
VL: B19 VL with R30S, Y92D, R94N, F95Y, P97Y
notes: IgG

binding result: binds
B20: BIIB-12-928 (antibody, V domains shown)
VH: B3 VH with S7F, G9V, S99G, S100G, R101T, H102Y, F103L, Y105T, R108Q
VL: B19 VL with G93V, P97L
notes: IgG

binding result: binds
B21: BIIB-12-893 (antibody, V domains shown)
VH: QVQLVQSGAEVKKPGASVKVSCKASGYTFTSYYMVWVRQAPGQGLEWMGIINPSGGSTSYAQKFQGRVTMTRDTSTSTVYMELSSLRSEDTAVYYCARDPGRRQYSFYGMDVWGQGTTVTVSS
VL: B22 VL with M4L, N92A, F93A, I96F
notes: IgG

binding result: binds
B24: BIIB-12-910 (antibody, V domains shown)
VH: QVQLQESGPGLVKPSQTLSLTCTVSGGSISSGGYYWSWIRQHPGKGLEWIGSIYYSGSTYYNPSLKSRVTISVDTSKNQFSLKLSSVTAADTAVYYCARGPLQRQVRYFDLWGRGTLVTVSS
VL: B22 VL with V11L, G28S, W32Y, A34N, A91L, N92S, F93H, F94T, I96F
notes: IgG

binding result: binds
B26: BIIB-12-1294 (antibody, V domains shown)
VH: B23 VH with T59S, D100T, M102S, L103S, A105D, F106M, P108V, L114T
VL: B23 VL with L4M, A28S, D50K, R93T
notes: IgG

binding result: binds
B27: BIIB-12-1300 (antibody, V domains shown)
VH: B3 VH with K98R, S99G, R101K, H102Y, F103L, D104H, Y105A, R108Q
VL: B22 VL with N92S, F93S, I96P
notes: IgG

binding result: binds
B28: BIIB-12-1293 (antibody, V domains shown)
VH: B1 VH with G100S, Y102G, S104H, I107L, Y109V, L115M
VL: B22 VL with F93I, I96F
notes: IgG

binding result: binds
B29: BIIB-12-1290 (antibody, V domains shown)
VH: B1 VH with S54G, G99E, Y102R, K103Y, S104V, I107M, Y109V, L115T
VL: B22 VL with A91G, N92F, F93S, I96F
notes: IgG

binding result: binds
B30: BIIB-12-908 (antibody, V domains shown)
VH: B3 VH with S99G, S100P, H102G, F103M, Y105V, R108Q, L111T
VL: B22 VL with M4L, A50G, A91G, N92S, F93S, F94L
notes: IgG
